Source: patent US20180044401A1
Values joined by “and” are separate entries in the source; they are usually repeats but may differ in a detail not shown here. Equal values may be shown once.

What was measured:
[1] = target: IgG-Fab prepared from anti-TNFα monoclonal antibody (Remicade); assay: SPR Biacore, Fab immobilized at about 10000 RU, peptide at 25-200 nM, response 1 minute after addition
[2] = target: IgG-Fc of anti-TNFα monoclonal antibody (Remicade); assay: SPR Biacore, Fc immobilized at about 10000 RU, peptide at 25-200 nM, response 1 minute after addition

B1: IgG-binding peptide of SEQ ID NO: 14 (designed binder)
chain: GPLGSTTYKLILNGKTLTGYTTAIADDAATAEKVLKQFANDNGIDGEWTYDDATKTFTVTE
inclination of approximate curve (binding response against peptide concentration) [1]: 0.5 and 0.4 and 0.6 | inclination of approximate curve (binding response against peptide concentration) [2]: 0.5 and 0.4 and 0.6
